Measured values from US20240335553A1.

Legend:
[1] = target: cation-independent mannose-6-phosphate receptor (CI-MPR), recombinant human IGF-II R (human) (UniProt P11717); assay: SPR, CI-MPR immobilized
[2] = target: cation-independent mannose-6-phosphate receptor (CI-MPR), recombinant human IGF-II R (human) (UniProt P11717); assay: SPR, CI-MPR immobilized, 1:1 Langmuir global fit
[3] = target: cation-independent mannose-6-phosphate receptor (CI-MPR), recombinant human IGF-II R (human) (UniProt P11717); assay: SPR (Biacore T200), CI-MPR immobilized on a CM5 chip, antibody as analyte in 2-fold dilutions from 500 nM to 0.98 nM
[4] = target: cation-independent mannose-6-phosphate receptor (CI-MPR), recombinant human IGF-II R (human) (UniProt P11717); assay: SPR, CI-MPR immobilized, antibody as analyte, 2-fold dilutions from 500 nM
[5] = target: epidermal growth factor receptor (EGFR) (human) (UniProt P00533); assay: cell-based or functional assay
[6] = target: cation-independent mannose-6-phosphate receptor (CI-MPR), recombinant human IGF-II R (human) (UniProt P11717); assay: SPR, CI-MPR immobilized, steady-state fitting

Row | Substance | fold affinity against glycoform (3) [1] [fold] | Kd [2] [nM] | Kd [3] [nM] | Kd [4] [nM] | degradation of total EGFR in HepG2 cells (Western blot, 48 h, 10 nM antibody) [5] [%] | fold affinity against glycoform (9) [1] [fold] | Kd [6] [nM]
1 | cetuximab M6P-glycoform 9 (cetuximab carrying the M6P tetrasaccharide glycan at the Fc domain) (antibody) | – | 70.3 | 70.3 | 72.4 | 57 | – | –
2 | cetuximab M6P-glycoform 10 (cetuximab carrying the bis-phosphorylated heptasaccharide N-glycan) (antibody) | – | 29.6 | 29.6 | – | – | 2 | –
3 | trastuzumab M6P-glycoform 6 (trastuzumab carrying the M6P-Man3GlcNAc2 glycan) (antibody) | – | – | – | – | – | – | 700

Results, then the substance that gave them:

Row | fold affinity against glycoform (3) [1] [fold] | Kd [2] [nM] | Kd [3] [nM] | Kd [4] [nM] | degradation of total EGFR in HepG2 cells (Western blot, 48 h, 10 nM antibody) [5] [%] | fold affinity against glycoform (9) [1] [fold] | Kd [6] [nM] | Substance
4 | 4 | 5.4 | 5.4 | – | – | – | – | trastuzumab M6P-glycoform 7 (trastuzumab carrying the bis-phosphorylated heptasaccharide moiety) (antibody)
5 | – | 28.6 | 28.6 | 30.2 | – | – | – | trastuzumab M6P-glycoform 3 (trastuzumab carrying the M6P tetrasaccharide glycan at the Fc domain) (antibody)
